According to patent publication US20130022605A1:

Target: mouse TNFR1 on L929 cells (mouse) (UniProt P25118)
Assay: cell-based or functional assay

Sequence of mouse TNFR1 on L929 cells (mouse) (P25118 30-454): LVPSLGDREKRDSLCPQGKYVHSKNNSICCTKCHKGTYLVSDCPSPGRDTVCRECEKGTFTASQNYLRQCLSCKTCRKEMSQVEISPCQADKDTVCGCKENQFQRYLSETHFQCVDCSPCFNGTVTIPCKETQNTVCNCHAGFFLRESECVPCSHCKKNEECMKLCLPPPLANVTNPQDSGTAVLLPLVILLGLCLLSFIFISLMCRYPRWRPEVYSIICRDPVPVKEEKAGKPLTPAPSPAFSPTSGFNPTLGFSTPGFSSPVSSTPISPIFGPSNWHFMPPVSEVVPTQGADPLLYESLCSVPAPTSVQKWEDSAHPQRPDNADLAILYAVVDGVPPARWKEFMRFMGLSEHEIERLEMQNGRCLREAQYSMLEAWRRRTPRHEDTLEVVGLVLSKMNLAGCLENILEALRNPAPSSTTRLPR

Substance	ND50, L929 cytotoxicity without TNF-α (agonism)
anti-TNFR1 antibody AF-425-PB (R&D Systems)	100 pM
anti-TNFR1 antibody MAB430 (R&D Systems)	10000 pM
